Data published in PMC3443816.

Molecular target: T1, Cbf5 wild type;Nop10;Gar1 (in complex) (Pyrococcus furiosus;Pyrococcus …, UniProt Q7LWY0;Q8U1R4;Q8U029 1-340;1-60;=MG+2-104, ||internal_change)
T1 sequence 1: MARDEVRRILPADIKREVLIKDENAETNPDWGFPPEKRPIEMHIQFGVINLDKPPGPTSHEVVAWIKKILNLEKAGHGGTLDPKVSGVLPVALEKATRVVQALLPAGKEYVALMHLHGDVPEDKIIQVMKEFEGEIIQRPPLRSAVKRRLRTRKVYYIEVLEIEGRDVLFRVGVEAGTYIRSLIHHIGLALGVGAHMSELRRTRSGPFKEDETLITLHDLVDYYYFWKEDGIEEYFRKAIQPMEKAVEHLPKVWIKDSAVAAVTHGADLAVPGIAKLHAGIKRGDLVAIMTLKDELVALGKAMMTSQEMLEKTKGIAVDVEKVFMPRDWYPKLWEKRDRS
T1 sequence 2: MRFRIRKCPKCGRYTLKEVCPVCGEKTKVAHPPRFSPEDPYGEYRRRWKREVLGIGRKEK
T1 sequence 3: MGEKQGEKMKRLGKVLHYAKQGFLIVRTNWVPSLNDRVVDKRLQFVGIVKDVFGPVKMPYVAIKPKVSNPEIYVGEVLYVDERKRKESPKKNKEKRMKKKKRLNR
Test: filter binding

B1: H/ACA guide RNA Pf4 (structured_RNA)
RNA: AAUGCCCCUCCCCUCUCACACCCCCGUGAGAAGUGAGCGGGGGGCGGUCGGGGAGGGGACAUCA
Kd: 21 ± 8 nM
